# Measurements reported in publication PMC7672554, “Selective Metal Ion Utilization Contributes to the Transformation of the Activity of Yeast Polymerase η from DNA Polymerization toward RNA Polymerization” (International Journal of Molecular Sciences, 2020).
# B1: Polη (yeast Polymerase η) (Saccharomyces cerevisiae S288C) (protein)
# chain: MSKFTWKELIQLGSPSKAYESSLACIAHIDMNAFFAQVEQMRCGLSKEDPVVCVQWNSIIAVSYAARKYGISRMDTIQEALKKCSNLIPIHTAVFKKGEDFWQYHDGCGSWVQDPAKQISVEDHKVSLEPYRRESRKALKIFKSACDLVERASIDEVFLDLGRICFNMLMFDNEYELTGDLKLKDALSNIREAFIGGNYDINSHLPLIPEKIKSLKFEGDVFNPEGRDLITDWDDVILALGSQVCKGIRDSIKDILGYTTSCGLSSTKNVCKLASNYKKPDAQTIVKNDCLLDFLDCGKFEITSFWTLGGVLGKELIDVLDLPHENSIKHIRETWPDNAGQLKEFLDAKVKQSDYDRSTSNIDPLKTADLAEKLFKLSRGRYGLPLSSRPVVKSMMSNKNLRGKSCNSIVDCISWLEVFCAELTSRIQDLEQEYNKIVIPRTVSISLKTKSYEVYRKSGPVAYKGINFQSHELLKVGIKFVTDLDIKGKNKSYYPLTKLSMTITNFDIIDLQKTVVDMFGNQVHTFKSSAGKEDEEKTTSSKADEKTPKLECCKYQVTFTDQKALQEHADYHLALKLSEGLNGAEESSKNLSFGEKRLLFSRKRPNSQHTATPQKKQVTSSKNILSFFTRKK
# notes: overexpressed in yeast as N-terminal GST fusion, GST removed with PreScission protease; no truncation stated
# What was measured:
# Assay in all cases: steady-state primer extension, Cy3-labelled RNA primer/DNA template, gel quantitation
# Assay type in all cases: biochemical, Saccharomyces cerevisiae
# [1] = substrate: Nc1nc2c(ncn2[C@@H]2O[C@H](COP(=O)(O)OP(=O)(O)OP(=O)(O)O)[C@@H](O)[C@H]2O)c(=O)[nH]1; conditions: RNA primer, template C (correct pair), 5 mM Mn2+, 20 nM primer/template, 25 mM Tris/HCl pH 7.5, 30 °C
# From the text: (§1) steady-state primer extension, Cy3-labelled RNA primer/DNA template, gel quantitation on Polη (yeast Polymerase η)
# [2] = substrate: Nc1ccn([C@@H]2O[C@H](COP(=O)(O)OP(=O)(O)OP(=O)(O)O)[C@@H](O)[C@H]2O)c(=O)n1; conditions: RNA primer, template G (correct pair), 5 mM Mn2+, 20 nM primer/template, 25 mM Tris/HCl pH 7.5, 30 °C
# From the text: as §1
# [3] = substrate: O=c1ccn([C@@H]2O[C@H](COP(=O)(O)OP(=O)(O)OP(=O)(O)O)[C@@H](O)[C@H]2O)c(=O)[nH]1; conditions: RNA primer, template A (correct pair), 5 mM Mn2+, 20 nM primer/template, 25 mM Tris/HCl pH 7.5, 30 °C
# From the text: as §1
# [4] = substrate: Nc1ncnc2c1ncn2[C@@H]1O[C@H](COP(=O)(O)OP(=O)(O)OP(=O)(O)O)[C@@H](O)[C@H]1O; conditions: RNA primer, template T (correct pair), 5 mM Mn2+, 20 nM primer/template, 25 mM Tris/HCl pH 7.5, 30 °C
# From the text: as §1
protein,measurement,setting,value
B1,Km,[1],2.55 ± 0.63 µM
same,kcat,[1],0.0845 ± 0.0045 s⁻¹
same,kcat/Km,[1],33200 M⁻¹ s⁻¹
same,Km,[2],1.89 ± 0.42 µM
same,kcat,[2],0.078 ± 0.00367 s⁻¹
same,kcat/Km,[2],41300 M⁻¹ s⁻¹
same,Km,[3],12.8 ± 2.25 µM
same,kcat,[3],0.0585 ± 0.00317 s⁻¹
same,kcat/Km,[3],4500 M⁻¹ s⁻¹
same,Km,[4],2.51 ± 0.64 µM
same,kcat,[4],0.0435 ± 0.00233 s⁻¹
same,kcat/Km,[4],17300 M⁻¹ s⁻¹
